{
  "source": "paper PMC11141940",
  "target": "MADD with deletion of exon 30 (dex30), MAC-tagged (human) (UniProt Q8WXG6)",
  "experiment": "affinity purification with mass spectrometry + proximity labelling; AP-MS and BioID with MAC-tagged MADD (wild-type or dex30) in Flp-In T-REx 293 cells; the text does not tell which of the two approaches gave this result (Figure 7)",
  "data": [
    {"substance": "ubiquitin-specific peptidase 9 X-linked (from UniProt Q93008 1-2554) (natural protein)", "values": [
      {"measurement": "fold change of relative abundance against wild-type MADD", "result": 24, "unit": "fold"}
    ]}
  ]
}
